# Reference: the nanobody polyreactivity screen of Harvey et al. (2022)
# Experiment: yeast display, Sf9 membrane polyspecificity reagent, FACS + sequencing; frameworks hold sequencing errors
# Summary of the method: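 Nanobodies from a synthetic yeast display library (Saccharomyces cerevisiae BJ5465), induced 36–48 hours with galactose, were stained 1 hour at 4 °C with 10% biotinylated, detergent-solubilized Sf9 membrane reagent, enriched on streptavidin microbeads, then FACS-sorted. Anti-HA (expression) and streptavidin (reagent binding) fluorescence set low and high (top ~1%) gates. Polyreactivity labels come from the gate of origin. Genes were colony-PCR amplified, MiSeq 2 × 250 sequenced and filtered by CDR length.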
row,Sequence,polyreactivity (PSR sort gate)
1,QVQLVESGGGLVQAGGILRLSCAASGSIFPNYAMGWYRQAPGKEREFVAAISSSGGSTYYADYVKGRFTISRENAKNTVYLQMNSLKPDDTAVYYCAAAYVGYYYSRGFDYWGQGTQVTVSS,high polyreactivity
2,QVQLVESGGGLVQAGGILRLSCAASGSIFQYNAKGWYIQEPGKEREFVAAISGSGTTTYYADSVKGRFTISRDNAKNTVYLQMNSLKPEDTAVYYCAKAIRHYPDVAYNAWGQGSQVTVSS,high polyreactivity
3,QVQLVESGGGLVQAGGILRLSCAASGSIFRNYAMGWYRQAPGKERELVAAISVRGGSTYYADSVKGRFTISRDNTKNTVYLQMNSLKPEDTAVYYCNARTYYPVYYRDGGYWGQGTQVTVSS,high polyreactivity
4,QVQLVESGGGLVQAGGILRLSCAASGSIFSGYAMGWYRQAPGKERELVAAITWRAASTYYADSVKGRFTISRDNAKNTVYLQMNSLKPEDTAVYYCAKEGWPKPAFYYWGQGTQVTVSS,low polyreactivity
5,QVQLVESGGGLVQAGGILRLSCAASGSIFSPYVMGWYRQAPGKERELVAAISTGGSTYYADSVKGRFTISRDNAKNTVYLQMNSLKPEDTAVYYCATDGWKQSAYDYWGQGTQVTVSS,low polyreactivity
6,QVQLVESGGGLVQAGGILRLSCAASGSTFFSNTKGWYRQAPGKERELVAAITDSGTSTYYADSVKGRFTISRDIAKNTVYLQMNSLKPEDTAVYYGDAYPSGWYDYWGHGTQVTVSS,low polyreactivity
7,QVQLVESGGGLVQAGGILRLSCAASGSTFQSNAMGWYRQAPGKERELVAAISSSAGTTFYADSVKGRFTISRDNAKNTVYLQMNSLKPEDTAVYYCAKKDFYFAPSPGYYRSRDYWGQGTQVTVSS,low polyreactivity
8,QVQLVESGGGLVQAGGILRLSCAASGSTIEFNAMGWYRPAPGKERELVAAISGSGASTYYADSVKGRFTISRDNAKNTVYLQMNSLTPEDTAVYYCNADSLYYDYQTVVVQALDYWGQGTQVTVSS,low polyreactivity
9,QVQLVESGGGLVQAGGILRLSCAASGSTLGFNAMGWYRLAPGKEREFDAGISASGSSTYYADSVKGRFTISRDNAKNTVYLQMNSLKPEDTAVYYCYAPRGSRRSYRRTEFYYWGQGTQVTVSS,high polyreactivity
10,QVQLVESGGGLVQAGGILRLSCAASGSTTYYYAMGWYRQQPGKDRELVATISTTGAGTYYADSVKGRFTISRDNAKNTVYLQMNSLKPEDTAVYYCAKDGKASRDDAEYDYWGQGTQVTVSS,low polyreactivity
11,QVQLVESGGGLVQAGGILRLSCAASGYNFKYYAMGWYRQAPGKERELVAAISRSGGSTYYADSVKGRFTISRDNAKNTVYLQMNSLTPEDTAVYYCAAYTHYAYGHDYWGQGTQVTVSS,high polyreactivity
12,QVQLVESGGGLVQAGGILRLSCAAYGRTSSYTMGWDIQANGQERELVAAITRRGGSTYYADSVKGRFTISRDHAKNSVYLQMNSLKPEDTAVYYCAASYRGEYDYWGQGTQVTVSS,high polyreactivity
13,QVQLVESGGGLVQAGGILRLSCADSGRTFGSNAMGWYRQAPGKERELVAAISGRTDSTYYADSVKGRFTISRDNAKNTVYLQMNSLKPEDTAVYYCAADSADVLYYYIRYNYWGQGTQVTVSS,low polyreactivity
14,QVQLVESGGGLVQAGGILRLSCAPYGSIFSQNAMGWYRQAPGKERELVAAISSSGTRTYYADSVKARFTISRDNAQNTVYLQMNSLKPEDTAVYYSNKVHFLPRYFLRSDYWGQGTQVTVSS,high polyreactivity
15,QVQLVESGGGLVQAGGILRLSCASSVTFFMGWYRQAPGKEWELVAGISISDVSTYYADSVKGRFTISRDNAKNTVYLQMNSLKPEDTAVYYCAAEFYPTTGFDYWGQGTQVTVSS,low polyreactivity
16,QVQLVESGGGLVQAGGILRLSCASYGSTFALYAMGWYRPAPGKERELVATITGSGGITYYADSVKGRFTISRDNAKNTVYLQMNSLKPVDTAVYYCAADPYTLYWYYWYGTSGFDYWGQGTQVTVSS,low polyreactivity
17,QVQLVESGGGLVQAGGILRLSCDASGFTFYYYTMGWYRQAPGKERELVAAISKSGGTTYYADSVKGRFTISRDNAKNTVYLQMNSLKPEDTAVYYCAAKPWVWVYARYGKHPSYDYWGQGTQVTVSS,high polyreactivity
18,QVQLVESGGGLVQAGGILRLSCDASGITFSTYAMGWYRQAPGKERELVAAITRSGGTYYADSVKGSFTISRDNAKNTVYLQMNSLKPEDTAVYYCAASYTVFGVRRYGYWGQGTQVTVSS,high polyreactivity
19,QVQLVESGGGLVQAGGILRLSCDASGLIFGPYTMGWYRQAPGKERELVAAISYGGVSTYYADSVKGRFTISRDNAKNTVYLQMNSLKPEDTAVYYCARGDSTRVIRPSAREYDYWGQGTQVTVSS,low polyreactivity
20,QVQLVESGGGLVQAGGKLRLSCAASGSIFSDYTMGWYRQAPGKERELVAVITLSSGSTYYADSVKGRFTISRDNAKNTVYLQMNSLKPEDTAVYYCAADGWYYFGSGVFEYDYWGQGTQVTVSS,low polyreactivity
21,QVQLVESGGGLVQAGGNLLLSCAASGFNFVDYAMGWSRQAPGKERELVASIDRSDGSTYYADSVKGRFTFSRDNAKNTVYLLMNSLKPEDTAVYYCAAADQLYSISTGDYWGQGTQVTVSL,low polyreactivity
22,QVQLVESGGGLVQAGGNLRLSCAASGNIFYVYAMGWYRQAPGKERELVAAITRSGGRTYYADSVKGRFTISRDNAKNTVYLQMNSLKPEETAVYYCAADRGVTRQKMDYWGQGTQVTVSS,low polyreactivity

row,Sequence,polyreactivity (PSR sort gate)
1,QVQLVESGGGLVQAGGPLRLSCAASGYLFSYYAMGWSRQAPGKERELVATIDWGGGSTYYADSVKGRFTISRDNANNTVYLQLNSLKPEDTAVYYCSKDYYINKYGYRYDSWGQGTQVTVSS,low polyreactivity
2,QVQLVESGGGLVQAGGRLLLSCAASGFTFYTYAMGWYRQAPGKERELVADISSGGSTNYADSVKGRFTISRDNAKNTVYLQMNSLKPEDTAVYYCSADYYFLDWYDYWGQGTQVTVSS,low polyreactivity
3,QVQLVESGGGLVQAGGRLRISCAASGAIFGEYPMGWYSQAPGKERELVADITTGGNTNYADSVKGRFTITRDNAKNTVYVHMNSLKPEDTAVYYCIAYGNTYGYWWFGYWGQGTQVNVSS,low polyreactivity
4,QVQLVESGGGLVQAGGRLRISCAASGRIFPYNAMGWYIQAPGKERELVAAINWSGGSTYYADSVKGRFTISRDNAKNTVYLQMNSLKPEDTAVYYCAVKTVRSSSRNYWGQGTQVTVSS,high polyreactivity
5,QVQLVESGGGLVQAGGRLRISCAASGSIFEGNGMGWYRQAPGKQREFVAAITNRGGSTYYADSVKGRFTISRDNAKNTVYVQMISLKPEDTAVFYCAADWTTNPDYQQSYFVSYEYNYWGHGTQVTVSS,low polyreactivity
6,QVQLVESGGGLVQAGGRLRISCAATGSTSVRNAMGWSRQGPGKESELVAGISRGGGITYYADSVKGRFTISRDNAKNTVYLQMNILKTEDTAVYYCAAVYYVDYPDGNYEYWGQGTQVTVSS,high polyreactivity
7,QVQLVESGGGLVQAGGRLRISCADSGSTFQFYALGWYRQAPGKERQLVASIRVRSGTTYYADSVKGRFTISRENAKNTVYLQMTSLKPEDTAVYYCAAGRPFYGRKYDYWGQGTQVTVSS,high polyreactivity
8,QVQLVESGGGLVQAGGRLRLICAASGFTFGGNVMGWYRQAPGKERELVAAISSSGGSTYYADSVKGRFTISRDNAKNTVYLQMNSLKPEDTAVYYCAKYAVFYQYRYYHWGQGTQVTVSS,high polyreactivity
9,QVQLVESGGGLVQAGGRLRLICAASGRIFYRNAMGWYRQAPGKERELVAAISYSGGRTYYADSVKGRFTISRDIAKYTVYLQMNRLKPEDTAVYYCAVYGYHEGGYWGQVTQVTVSS,high polyreactivity
10,QVQLVESGGGLVQAGGRLRLICAASGRTFVVNAMGWYRQAPGQERELVAAITRRAGITYYADSVKGRFTISRDNAKNTVYLQMNSLKPEDTAVYYCAADRSYFPDTRTTYGYNYWGQGTQVTVSS,low polyreactivity
11,QVQLVESGGGLVQAGGRLRLICAASGSTFYYNALGWYRQAPGKERELVAGISRSGGSTYYADSVKGRFTISRDNAKNTVYLQMNSLKPEDTAVYYCAAKSYAYRWYDYWGQGTQVTVSS,high polyreactivity
12,QVQLVESGGGLVQAGGRLRLICAASGSTLYSYAMGWYRQAPGKEREFVAAISRRGGSTYYADSVKGRFTISRDNAKNTVYLQMNSLKPEDTAVYYCAARDSSYHWYGYWGQGTQVTVSS,high polyreactivity
13,QVQLVESGGGLVQAGGRLRLICAASGYTFPLYAMGWYRPAPGKERELVADINIGGASTYYADSVKGRFTISRDNAKNTVELQMNSLKPEDPAVYYCAKEYYDGYFPTFDYDYWGQGTQVTVSS,low polyreactivity
14,QVQLVESGGGLVQAGGRLRLICSASGRIIKDNAMGWYRQAPGKERELVADISSSGGSTYYADSVKGRFTISRDNAKNTVYLQMNSLKPEDTAVYYFAKYRYPSRLYSFPLGYDYWGQGTQVTLSS,high polyreactivity
15,QVQLVESGGGLVQAGGRLRLRCAASGIIFTAYVMGWYRQAPGKERELVADITSGDGSTYYADSVKGRFTISRDNAKNTVYLQMNSLKPEDTAVYYCAADYGQLVFDSYRREYDYWGQGTQVTVSS,low polyreactivity
16,QVQLVESGGGLVQAGGRLRLSCAAAGRTFVLYVMGWYRQAPRKEREFVADINAGGGSTYYADSVKGRFTMSRDNAKNTVYLQMNSLKAEDTAVYYCAASYVRGWKHSLDDYWGQGTQVTVAS,low polyreactivity
17,QVQLVESGGGLVQAGGRLRLSCAACGIIFLLYAMGWYRQAPGKERELVAAITNGGRTNYADSVQGRFTISRDNAKNTVYLQMNSRKPEDTALYYCNAVLSVPDYTLFDYWGQGTQVTVSS,low polyreactivity
18,QVQLVESGGGLVQAGGRLRLSCAASGFIFAKYAMGWYRQAPGKERELVAAITSSGVSTYYADSVKGRFTISRDNAKNTVYLQMNSLKPADTAVYYCNARERYSYWGQGTQVTVSS,high polyreactivity
19,QVQLVESGGGLVQAGGRLRLSCAASGFIFTDNGMGWYRQAPGKERELVAAINSDGSTYYADSVKGRFTISRDNAKNTVYLQMNSLKPEATAVYYCAVDGSITEIYLPGYGYGYWGQGTQVTVSS,low polyreactivity
20,QVQLVESGGGLVQAGGRLRLSCAASGFPFAVYAMGWYRQAPGKERELVATITSAGSTYYADSVKGRFTISRDTAKNTVYLQRNSLKPEDNEVYYCAAAGTYYRGDYGYWGQGTQVTVSS,low polyreactivity
21,QVQLVESGGGLVQAGGRLRLSCAASGFTFNSYVMGWYRQAPGKERELVAAITRSGDRTYYADSVKGRFTISRDNAKNTVYLQMNSLKPEDTAVYYCAATWSINYYGWYYYWGQGTQVTVSS,high polyreactivity
